The test system of data set [1] is zymosan-induced focal inflammation in left hindleg of rats. The data set is described as follows: Rat inflammation study: in vivo imaging and biodistribution of Tc-99m labeled conjugates. The conditions noted are these: i.v. tail vein, 30 minutes, average of two rats; for Inflam:Uninfl (target to background ratio, inflamed:uninflamed muscle): zymosan-inflamed left leg vs right leg muscle.
Description: (§1) Rat inflammation studies were performed as follows. 2 male Wistar rats (Charles River, 200-250 g) were injected intramuscularly with (25 mg) zymosan, a yeast cell wall suspension, into their left hindlegs 24 hours before imaging. Focal inflammation in the leg was visually detectable after 1 day.
(§2) The rats were anaesthetized with somnitol (40 to 50 mg/kg), and the labeled conjugate solution (200 μL) was injected intravenously via the tail vein. Serial whole-body scintigrams were acquired at 30 minutes. The rats were then killed with anaesthesia overdose and samples of organs, urine, blood, inflamed muscle (left leg) and non-inflamed muscle (right leg) and inflammatory exudate (fluid) were weighed and counted in either a well-type gamma counter or in a gamma dose calibrator depending upon the organ. The dose calculations were made based on the assumption that the blood volume constituted 8% of body weight. The results of the conjugates represented in the table below are averages for two rats and are corrected for the residual dose in the tail.

The test system is the same in data set [2]. Particulars: rat, in vivo, iv.
Description: as §1, §2

Starred links: 1 amine or outer side, 2 acyl side, 3 side chain; linkers in the order of their positions; H or OH if unused. Non-standard residues stand in square brackets, D forms with d. No end group written: not given here. *: point of attachment. Cys(Acm) = CC(=O)NCSC[C@H](N[*:1])C(=O)[*:2]; Me2Gly = CN(C)CC(=O)*

As for “N,N-dimethylGly-Ser-Cys(Acm)-Gly-Thr-Lys-Pro-Pro-Arg-OH ([Me2Gly]S[Cys(Acm)]GTKPPR-OH; also: 99mTc label via N,N-dimethylGly-Ser-Cys(Acm) chelator) [N,N-dimethylGly-Ser-Cys(Acm)-GTKPPR-OH]”, in data set [1], the “Fluid:Blood (inflammatory exudate:blood)” value was 1.9 and the “Inflam:Uninfl (target to background ratio, inflamed:uninflamed muscle)” value is 5.3. For the same substance, in data set [2], the “GI Tract (% dose)” value stood at 2.8 % dose, the “Liver (% dose)” value is 2.4 % dose and the “Urine (% dose)” value turned out to be 63.5 % dose.
For “N,N-dimethylGly-Thr-Cys(Acm)-Gly-Thr-Lys-Pro-Pro-Arg ([Me2Gly]T[Cys(Acm)]GTKPPR; also: 99mTc label via N,N-dimethylGly/Cys(Acm) chelator) [N,N-dimethylGly-Thr-Cys(Acm)-GTKPPR-OH]”, in that order: 1.6, 4.6, 2.5 % dose, 2.4 % dose and 68.5 % dose.

The values above are taken from US5662885A, “Peptide derived radionuclide chelators” (Resolution Pharmaceuticals Inc., priority 1994, dated 1997).
